Measurements as given in patent US20250250314.

system: UCM12
Sequence (chain, as listed by the source, chain 1 of 3, other chains not shown): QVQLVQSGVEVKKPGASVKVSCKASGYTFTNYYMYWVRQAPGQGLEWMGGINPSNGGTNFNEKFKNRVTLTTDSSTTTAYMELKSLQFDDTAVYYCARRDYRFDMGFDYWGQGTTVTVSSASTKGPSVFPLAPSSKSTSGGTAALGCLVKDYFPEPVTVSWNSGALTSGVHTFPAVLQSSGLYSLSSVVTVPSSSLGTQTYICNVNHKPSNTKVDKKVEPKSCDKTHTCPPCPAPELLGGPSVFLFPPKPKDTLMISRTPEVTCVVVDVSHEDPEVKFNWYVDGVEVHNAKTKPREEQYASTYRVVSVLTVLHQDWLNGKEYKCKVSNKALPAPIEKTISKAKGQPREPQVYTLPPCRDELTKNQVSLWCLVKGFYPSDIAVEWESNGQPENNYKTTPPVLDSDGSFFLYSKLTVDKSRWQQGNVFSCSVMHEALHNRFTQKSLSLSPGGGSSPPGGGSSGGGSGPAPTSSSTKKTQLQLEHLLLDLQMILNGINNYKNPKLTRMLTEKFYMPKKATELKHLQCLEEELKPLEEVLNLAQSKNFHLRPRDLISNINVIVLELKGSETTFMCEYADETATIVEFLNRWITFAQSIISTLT
Sequence (chain, as listed by the source, chain 2 of 3, other chains not shown): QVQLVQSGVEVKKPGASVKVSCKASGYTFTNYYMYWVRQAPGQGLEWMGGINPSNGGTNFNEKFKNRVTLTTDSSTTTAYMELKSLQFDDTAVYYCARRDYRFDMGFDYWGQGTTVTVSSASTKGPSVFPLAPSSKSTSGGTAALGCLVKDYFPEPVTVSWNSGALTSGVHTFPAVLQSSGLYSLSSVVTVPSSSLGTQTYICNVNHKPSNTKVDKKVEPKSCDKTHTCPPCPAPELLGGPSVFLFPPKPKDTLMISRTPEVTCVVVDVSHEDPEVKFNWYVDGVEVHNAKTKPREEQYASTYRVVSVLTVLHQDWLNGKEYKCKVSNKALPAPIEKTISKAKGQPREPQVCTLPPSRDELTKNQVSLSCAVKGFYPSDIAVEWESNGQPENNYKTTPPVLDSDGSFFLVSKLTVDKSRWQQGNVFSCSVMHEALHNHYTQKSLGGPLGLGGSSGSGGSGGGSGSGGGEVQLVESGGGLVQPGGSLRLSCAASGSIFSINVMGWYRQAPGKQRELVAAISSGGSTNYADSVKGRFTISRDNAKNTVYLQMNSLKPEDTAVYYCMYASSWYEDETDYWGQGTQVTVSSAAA

Chain of MMP9 (chain, as listed by the source): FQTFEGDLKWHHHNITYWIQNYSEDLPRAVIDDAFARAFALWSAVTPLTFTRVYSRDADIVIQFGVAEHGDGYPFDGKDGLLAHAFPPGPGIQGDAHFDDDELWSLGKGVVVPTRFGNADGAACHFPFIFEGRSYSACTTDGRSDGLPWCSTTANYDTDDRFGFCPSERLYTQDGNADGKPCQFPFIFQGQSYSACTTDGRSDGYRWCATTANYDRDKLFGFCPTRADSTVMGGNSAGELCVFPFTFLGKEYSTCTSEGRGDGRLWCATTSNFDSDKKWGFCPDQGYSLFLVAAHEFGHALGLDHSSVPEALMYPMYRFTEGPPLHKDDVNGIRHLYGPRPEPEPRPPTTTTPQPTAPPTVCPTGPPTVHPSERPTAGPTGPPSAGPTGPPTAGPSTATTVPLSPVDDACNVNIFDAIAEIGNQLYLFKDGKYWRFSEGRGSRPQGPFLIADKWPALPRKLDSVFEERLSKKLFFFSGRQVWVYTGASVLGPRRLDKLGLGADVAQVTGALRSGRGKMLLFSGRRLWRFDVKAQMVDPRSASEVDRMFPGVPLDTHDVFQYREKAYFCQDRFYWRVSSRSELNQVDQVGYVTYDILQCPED
Chain of MMP8 (chain, as listed by the source): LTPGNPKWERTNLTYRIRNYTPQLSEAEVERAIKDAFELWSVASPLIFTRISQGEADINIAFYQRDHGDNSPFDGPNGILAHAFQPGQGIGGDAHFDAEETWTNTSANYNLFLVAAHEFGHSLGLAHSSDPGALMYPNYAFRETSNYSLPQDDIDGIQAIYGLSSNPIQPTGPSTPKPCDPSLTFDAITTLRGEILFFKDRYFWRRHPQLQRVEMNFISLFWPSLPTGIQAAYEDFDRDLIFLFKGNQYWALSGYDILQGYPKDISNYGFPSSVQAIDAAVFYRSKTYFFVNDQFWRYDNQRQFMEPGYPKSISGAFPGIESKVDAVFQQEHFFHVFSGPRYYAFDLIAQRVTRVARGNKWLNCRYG
Chain of Cathepsin L (chain, as listed by the source): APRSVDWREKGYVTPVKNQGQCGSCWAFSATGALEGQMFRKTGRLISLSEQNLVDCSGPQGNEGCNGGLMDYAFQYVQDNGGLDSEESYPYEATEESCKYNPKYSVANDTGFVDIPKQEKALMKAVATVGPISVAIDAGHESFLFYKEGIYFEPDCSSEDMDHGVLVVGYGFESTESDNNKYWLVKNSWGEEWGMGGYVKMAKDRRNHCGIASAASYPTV

Row | Substance | kcat/Km [M⁻¹ s⁻¹]
1 | MMP8 | 810
2 | MMP9 | 7900
3 | Cathepsin L | 14000
